Values quoted from earlier work in article PMC5803174.

Columns and labels:
[1] = target: beta-cardiac myosin proximal S2 (Homo sapiens) (UniProt P12883)
[2] = target: beta-cardiac myosin short S1 (Homo sapiens) (UniProt P12883)

Substance | Kd [1] | Kd [2]
MyBP-C C1-C2 (from UniProt Q14896) | 5 µM | 
cardiac MyBP-C (from UniProt Q14896) |  | 17.5 µM
